Data: PMC8427768

T1: Elk1 ETS domain (human, UniProt P19419 1-93)
T1 sequence: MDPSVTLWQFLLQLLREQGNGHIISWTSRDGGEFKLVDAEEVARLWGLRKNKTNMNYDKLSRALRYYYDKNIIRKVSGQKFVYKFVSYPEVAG

B1: E74 (dsDNA)
DNA 1: CTGAATAACCGGAAGTAACTCATC
DNA 2: GATGAGTTACTTCCGGTTATTCAG
B2: SC1 (dsDNA)
DNA 1: CGGCCAAGCCGGAAGTGAGTGCC
DNA 2: GGCACTCACTTCCGGCTTGGCCG

Target: T1, Elk1 ETS domain
Assay: SPR

Binder	Kd [nM]
B1	0.02 ± 0.01
B2	0.06 ± 0.01
